Data published in paper PMC5428264, “Dentin sialoprotein facilitates dental mesenchymal cell differentiation and dentin formation” (Scientific Reports, 2017).

Columns and labels:
[1] = molecular target: T1, GST-DSPf5 fusion protein (COOH-terminal DSP domain aa 363–458) (mouse, UniProt P97399 363-458); test: co-IP; in vitro immunoprecipitation: 10 μg of purified GST-DSP and GST-Ocln fusion proteins mixed, precipitated with DSP or Ocln antibody and protein G Sepharose, blotted with the other antibody; conditions: both partners purified
T1 construct: also called DSP peptide; source: E. coli BL21, purified (GSTrap 4B)
T1 sequence (looked up): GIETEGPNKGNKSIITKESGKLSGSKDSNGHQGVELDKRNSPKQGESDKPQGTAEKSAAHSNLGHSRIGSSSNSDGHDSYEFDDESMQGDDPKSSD

[2] = molecular target: T2, biotinylated DSPf5 (recombinant DSP aa 363–458) (mouse, UniProt P97399 363-458, biotin (Sulfo-NHS-LC-biotin)); test: ELISA; substrate binding assay: OclnL2 coated at 1 μg per well (BSA as control), biotinylated DSPf5 at 0–18 fold molar excess in PBS with 1% BSA, room temperature, different time periods; AP-conjugated streptavidin, PNPP, 405 nm; conditions: both partners purified
T2 construct: The same recombinant protein as m6, labelled with biotin; source: E. coli BL21, purified (GSTrap 4B), then reacted with Sulfo-NHS-LC-biotin
T2 sequence (looked up): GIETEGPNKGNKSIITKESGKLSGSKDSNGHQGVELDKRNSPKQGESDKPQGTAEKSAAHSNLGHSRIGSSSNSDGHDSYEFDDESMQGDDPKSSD

binding result [1]: binds | binding result [2]: binds
B1: GST-OclnL2 fusion protein (occludin extracellular loop 2, aa 194–241) (domain or fragment, mouse, UniProt Q61146 194-241, looked up)
chain: GVNPTAQASGSMYGSQIYMICNQFYTPGGTGLYVDQYLYHYCVVDPQE
notes: occludin, mouse, extracellular loop 2, residues 194-241 counted from the translation start site; Cloned into pGEX-6P3 from pBluescript SK-Ocln; also called Ocln loop2; extracellular loop 2 of Ocln; source: E. coli BL21, purified (GSTrap 4B)
